Legend:
KDR mRNA = test: Gene inhibitory effect of siRNA-PEG-lipid particle composition after cell delivery in A375 cells; assay type: cell-based; conditions: particles prepared from PEG-lipids and anti-KDR siRNA, 24 h and 48 h after transfection
Description: (1) ARPE-19 cells were cultured in a DMEM/F12+12% FBS+double antibody medium (containing 100 U/mL Penicillin, 100 μg/mL Streptomycin) and placed in an incubator at 37° C. with 5% CO2 and saturated humidity. 24 h before the experiment, the cells were seeded onto a 12-well plate at 1.2×10^5 cell/well and cultured overnight. (2) 50 μL of diluted anti-KDR siRNA:compound 1 (1:10), anti-KDR siRNA:compound 2 (1:10), and anti-KDR siRNA:compound 3 (1:10) (in molar ratios: the siRNA concentration was 20 μM) from […] with an OPTI-MEM culture medium were separately mixed with 50 μL of a diluted Lipofectamine 3000™ transfection reagent from 3 μL with an OPTI-MEM culture medium for positive control, followed by gently shaking, and the mixed solutions were left to stand for 15 min. In addition, a blank group, an NC group, and an NC-RL group were set.
Anti-KDR siRNA is an siRNA that inhibits VEGFR2 mRNA expression, and the preparation method therefor is described in patent document CN202010229195.2: the sequence is as follows: • Sense strand: 5′-GGAGUGAGAUGAAGAAAUU-3′; • Antisense strand: 5′-AAUUUCUUCAUCUCACUCC-3′. (3) The medium was refreshed for the cells in each well in the cell plate, an antibiotic-free culture medium was added at 900 μL/well, and then 100 μL of the mixed solution was added into each well, finally the total volume of each well being 1000 μL. The siRNA (or siRNA NC, or siR-NC RL) transfection concentration was 50 nM. (4) 24 h and 48 h after transfection, the 12-well plate was taken out from the incubator at 37° C. with 5% CO2, and the cells were harvested for RNA extraction for subsequent detection.
The relative expression level of KDR mRNA was calculated by AACt with GAPDH as an endogenous reference gene: mRNA expression levels were normalized for each group with the expression level for the blank group as 100%.
The foregoing procedure was similar to that of Example 4 except that the culture medium for the A375 cells was a DMEM culture medium containing 10% FBS (containing 100 U/mL Penicillin, 100 μg/mL of Streptomycin).

guinea pigs = test: Allergy study of PEG-lipids in guinea pigs: systemic sensitization symptom grading; assay type: in vivo, guinea pig
Description: (§1) 48 healthy guinea pigs which were fed with food normally for 5 days were randomly divided into 6 groups, with 8 guinea pigs for each group.
(§2) Sensitization was carried out by intraperitoneal injection, and the administration was carried out once every other day at a volume of 1 mL/guinea pig for 4 times in total. On the second day after the last sensitization, each group of guinea pigs was challenged by applying a corresponding liquid medicine to the toes thereof via intravenous injection at a dose of 2 mL/guinea pig. […] Blood was collected 40 min after challenging and drug withdrawal, anticoagulated with heparin, and made into blood plasma.
During sensitization and at the time of challenge administration, animals were observed and recorded for the onset and duration of symptoms, such as nasal scratching, sneezing, restlessness, jumping, panting, and purpura, and the score and grade of symptoms were determined according to the criteria for grading symptoms of systemic sensitization (Table 3).

IgE = test: Plasma IgE level after challenge administration in guinea pigs; assay type: in vivo; conditions: guinea pig plasma, 40 min after challenge
Description: 48 healthy guinea pigs which were fed with food normally for 5 days were randomly divided into 6 groups, with 8 guinea pigs for each group. Group A: negative control group (0.9% sodium chloride injection): group B: positive control group (0.15 mg/mL ovalbumin solution. available from Sigma. USA, lot No. DHO15-4): group C: M-PEG47-DTDPAM (i.e., compound 1. prepared in Example 1); group D: M-PEG47-DTDPA (i.e., compound 2. prepared in Example 2): group E: M-DTDPAM-2000 (available from Tianjin JenKem Technology Co., Ltd., lot No. ZZ409P002); group F: M-DTDPA-2000 (available from Tianjin JenKem Technology Co., Ltd., lot No. ZZ409P004).
Sensitization was carried out by intraperitoneal injection, and the administration was carried out once every other day at a volume of 1 mL/guinea pig for 4 times in total. On the second day after the last sensitization, each group of guinea pigs was challenged by applying a corresponding liquid medicine to the toes thereof via intravenous injection at a dose of 2 mL/guinea pig. The animal state was observed daily during sensitization, the reaction of guinea pigs was continuously observed for 40 min at 15 min before and after challenging via intravenous injection, and the time of onset and disappearance of symptoms was recorded. Blood was collected 40 min after challenging and drug withdrawal, anticoagulated with heparin, and made into blood plasma.

histamine = test: Plasma histamine level after challenge administration in guinea pigs; assay type: in vivo, guinea pig
Description: as §1, §2

CCCCCCCCCCCCCCN(CCCCCCCCCCCCCC)C(=O)CCOCCOCCOCCOCCOCCOCCOCCOCCOCCOCCOCCOCCOCCOCCOCCOCCOCCOCCOCCOCCOCCOCCOCCOCCOCCOCCOCCOCCOCCOCCOCCOCCOCCOCCOCCOCCOCCOCCOCCOCCOCCOCCOCCOCCOCCOCCOCCOC [compound 1]
inhibitory effect on KDR mRNA (relative expression level of KDR mRNA) (KDR mRNA): significant and continuous inhibitory effect

CCCCCCCCCCCCCCN(CCCCCCCCCCCCCC)CCCOCCOCCOCCOCCOCCOCCOCCOCCOCCOCCOCCOCCOCCOCCOCCOCCOCCOCCOCCOCCOCCOCCOCCOCCOCCOCCOCCOCCOCCOCCOCCOCCOCCOCCOCCOCCOCCOCCOCCOCCOCCOCCOCCOCCOCCOCCOCCOC [compound 2]
inhibitory effect on KDR mRNA (relative expression level of KDR mRNA) (KDR mRNA): significant and continuous inhibitory effect

CCCCCCCCCCCCCC(=O)OCC(COCCOCCOCCOCCOCCOCCOCCOCCOCCOCCOCCOCCOCCOCCOCCOCCOCCOCCOCCOCCOCCOCCOCCOCCOCCOCCOCCOCCOCCOCCOCCOCCOCCOCCOCCOCCOCCOCCOCCOCCOCCOCCOCCOCCOCCOCCOC)OC(=O)CCCCCCCCCCCCC (centres unmarked) [compound 3]
inhibitory effect on KDR mRNA (relative expression level of KDR mRNA) (KDR mRNA): significant and continuous inhibitory effect

B1: Positive control group: 0.15 mg/mL ovalbumin solution, available from Sigma, USA (protein, UniProt P01012 2-386, looked up)
Ovalbumin: GSIGAASMEFCFDVFKELKVHHANENIFYCPIAIMSALAMVYLGAKDSTRTQINKVVRFDKLPGFGDSIEAQCGTSVNVHSSLRDILNQITKPNDVYSFSLASRLYAEERYPILPEYLQCVKELYRGGLEPINFQTAADQARELINSWVESQTNGIIRNVLQPSSVDSQTAMVLVNAIVFKGLWEKAFKDEDTQAMPFRVTEQESKPVQMMYQIGLFRVASMASEKMKILELPFASGTMSMLVLLPDEVSGLEQLESIINFEKLTEWTSSNVMEERKIKVYLPRMKMEEKYNLTSVLMAMGITDVFSSSANLSGISSAESLKISQAVHAAHAEINEAGREVVGSAEAGVDAASVSEEFRADHPFLFCIKHIATNAVLFFGRCVSP
Allergic symptoms (grade) (guinea pigs; after challenge administration, grade per Table 3): extremely positive | Mean score (guinea pigs; i.p. sensitization 4 times, i.v. challenge, scoring per Table 3): 2.8 | IgE level (IgE): 286.33 ± 34.67 ng/mL | plasma histamine level compared with group A (histamine; guinea pig plasma after challenge): significantly different from that of group A | Histamine level (histamine; guinea pig plasma, 40 min after challenge): 12.21 ± 4.25 ng/mL
